Results: patent US20170349669A1 (Hoffmann-La Roche, published 2017)
Changes are numbered by the printed parent chain. Names and notes keep the numbering of the source.

T1: TWEAK (human, UniProt O43508 94-249, limits assumed)
T1 construct: The assay paragraph says only 'TWEAK'; also called human TWEAK; TNF-related weak inducer of apoptosis
T1 sequence (looked up): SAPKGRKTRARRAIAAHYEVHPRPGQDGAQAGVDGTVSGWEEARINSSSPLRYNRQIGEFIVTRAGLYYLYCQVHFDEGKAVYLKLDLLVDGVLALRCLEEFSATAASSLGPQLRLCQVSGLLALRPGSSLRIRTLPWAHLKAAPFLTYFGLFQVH

T2: human VEGFA-121-His (human, UniProt P15692-9 27-147)
T2 construct: Captured on an anti-His antibody surface; P15692 is the canonical VEGF-A entry, and the 121 isoform is one of its splice forms; also called VEFGA-121-His; not shown: His tag
T2 sequence (looked up): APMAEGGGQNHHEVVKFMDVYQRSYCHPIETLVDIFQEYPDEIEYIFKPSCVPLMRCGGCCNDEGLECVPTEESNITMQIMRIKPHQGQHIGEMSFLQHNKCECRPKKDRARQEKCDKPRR

T3: human Ang-2-RBD-Fc (human, UniProt O15123 275-496, limits assumed)
T3 construct: domain: RBD; Used as analyte in solution; The KD is called apparent; not shown: Fc part
T3 sequence (looked up): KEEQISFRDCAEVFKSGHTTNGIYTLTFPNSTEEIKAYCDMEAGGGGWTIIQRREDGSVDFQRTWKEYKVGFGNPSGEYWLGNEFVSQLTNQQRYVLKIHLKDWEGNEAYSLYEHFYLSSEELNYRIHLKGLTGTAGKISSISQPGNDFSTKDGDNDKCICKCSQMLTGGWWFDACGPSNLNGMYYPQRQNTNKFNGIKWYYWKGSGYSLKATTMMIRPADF

T4: human IL17 (human, UniProt Q16552 24-155)
T4 construct: Used as analyte in solution; also called IL17-A
T4 sequence (looked up): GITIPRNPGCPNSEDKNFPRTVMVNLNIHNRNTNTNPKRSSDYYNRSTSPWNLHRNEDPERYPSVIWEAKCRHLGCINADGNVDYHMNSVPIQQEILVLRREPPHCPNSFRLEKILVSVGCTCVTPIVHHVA

B1: TweakIL17_102 (bispecific antibody, human IgG4 S228P, kappa)
heavy 1: DIQMTQSPSSVSASVGDRVTITCQASQNIYSNLAWYQQKPGKAPKLLIYTASYLASGVPSRFSGSGSGTDYTLTISSLQPEDFATYYCQTAYYNSRPDTVAFGGGTKVEIKRTVAAPSVFIFPPSDEQLKSGTASVVCLLNNFYPREAKVQWKVDNALQSGNSQESVTEQDSKDSTYSLSSTLTLSKADYEKHKVYACEVTHQGLSSPVTKSFNRGECPPCPPCPAPEFEGGPSVFLFPPKPKDTLMISRTPEVTCVVVDVSQEDPEVQFNWYVDGVEVHNAKTKPREEQFNSTYRVVSVLTVLHQDWLNGKEYKCKVSNKGLPSSIEKTISKAKGQPREPQVYTLPPCQEEMTKNQVSLWCLVKGFYPSDIAVEWESNGQPENNYKTTPPVLDSDGSFFLYSRLTVDKSRWQEGNVFSCSVMHEALHNHYTQKSLSLSL
light 1: QVQLVQSGAEVKKPGSSVKVSCKASGFDFSTYYMSWVRQAPGQGLEWMGTVYVRQGTTYYASWLNGRVTITADESTSTAYMELSSLRSEDTAVYYCARGGYNYDDAFVIWGQGTLVTVSSASTKGPSVFPLAPCSRSTSESTAALGCLVKDYFPEPVTVSWNSGALTSGVHTFPAVLQSSGLYSLSSVVTVPSSSLGTKTYTCNVDHKPSNTKVDKRVESKYG
heavy 2: EVQLVESGGGLVQPGGSLRLSCAASGFSLDSYGVHWVRQATGKGLEWVSVIWSDGTTTYNSALKSRFTISRENAKNSLYLQMNSLRAGDTAVYYCARDTHYRLYYYAMDYWGQGTTVTVSSASTKGPSVFPLAPCSRSTSESTAALGCLVEDYFPEPVTVSWNSGALTSGVHTFPAVLQSSGLYSLSSVVTVPSSSLGTKTYTCNVDHKPSNTKVDERVESKYGPPCPPCPAPEFEGGPSVFLFPPKPKDTLMISRTPEVTCVVVDVSQEDPEVQFNWYVDGVEVHNAKTKPREEQFNSTYRVVSVLTVLHQDWLNGKEYKCKVSNKGLPSSIEKTISKAKGQPREPQVCTLPPSQEEMTKNQVSLSCAVKGFYPSDIAVEWESNGQPENNYKTTPPVLDSDGSFFLVSRLTVDKSRWQEGNVFSCSVMHEALHNHYTQKSLSLSL
light 2: DIVMTQSPLSLPVTPGEPASISCRSSQSLVHSNGDTYFHWYLQKPGQSPQLLIYKVSNRFSGVPDRFSGSGSGTDFTLKISRVEAEDVGVYYCSQTTHAPFTFGQGTKLEIKRTVAAPSVFIFPPSDKKLKSGTASVVCLLNNFYPREAKVQWKVDNALQSGNSQESVTEQDSKDSTYSLSSTLTLSKADYEKHKVYACEVTHQGLSSPVTKSFNRGEC
notes: also called TweakIL17_0102
B2: TweakIL17_101 (bispecific antibody, human IgG4 S228P, kappa)
heavy 1: B1 heavy 1
light 1: B1 light 1
heavy 2: B1 heavy 2 with E151K, E217K
light 2: B1 light 2 with K128E, K129Q
notes: also called TweakIL17_101 (wt); TweakIL17_0101
B3: TweakIL17_103 (bispecific antibody, human IgG4 S228P, kappa)
heavy 1: B1 heavy 1 with Q128E
light 1: B1 light 1
heavy 2: B1 heavy 2
light 2: B1 light 2
notes: also called TweakIL17_0103
B4: TweakIL17_0128 (bispecific antibody, human IgG4 S228P, kappa)
heavy 1: B1 heavy 1 with Q38E, Q128E
light 1: B1 light 1 with Q39K
heavy 2: B1 heavy 2 with Q39E
light 2: B1 light 2 with Q43K
notes: also called TweakIL17_128
B5: Ang2VEGF_469 (bispecific antibody, human IgG1, kappa)
heavy 1: not shown
light 1: EVQLVESGGGLVQPGGSLRLSCAASGYTFTNYGMNWVRQAPGKGLEWVGWINTYTGEPTYAADFKRRFTFSLDTSKSTAYLQMNSLRAEDTAVYYCAKYPHYYGSSHWYFDVWGQGTLVTVSSASTKGPSVFPLAPSSKSTSGGTAALGCLVEDYFPEPVTVSWNSGALTSGVHTFPAVLQSSGLYSLSSVVTVPSSSLGTQTYICNVNHKPSNTKVDEKVEPKSC
heavy 2: not shown
light 2: QPGLTQPPSVSVAPGQTARITCGGNNIGSKSVHWYQQKPGQAPVLVVYDDSDRPSGIPERFSGSNSGNTATLTISRVEAGDEADYYCQVWDSSSDHYVFGTGTKVTVLRTVAAPSVFIFPPSDEQLKSGTASVVCLLNNFYPREAKVQWKVDNALQSGNSQESVTEQDSKDSTYSLSSTLTLSKADYEKHKVYACEVTHQGLSSPVTKSFNRGEC
notes: The charged substitutions are in the crossed (VEGF) arm
B6: Ang2VEGF_470 (bispecific antibody, human IgG1, kappa)
heavy 1: not shown
light 1: B5 light 1
heavy 2: not shown
light 2: B5 light 2 with Q125E
notes: The charged substitutions are in the crossed (VEGF) arm, with Q124E added in the Ang2 light chain
B7: Ang2VEGF_467 (bispecific antibody, human IgG1, kappa)
heavy 1: not shown
light 1: B5 light 1 with E153K, E219K
heavy 2: not shown
light 2: B5 light 2 with E124K, Q125K
notes: Wild type CH3 domains, no knob-into-hole
B8: Ang2VEGF_468 (bispecific antibody, human IgG1, kappa)
heavy 1: not shown
light 1: B5 light 1 with E153K, E219K
heavy 2: not shown
light 2: B5 light 2 with E124K, Q125K
notes: as for B7

Biological target: T1, TWEAK
Assay: SPR Biacore T200 25 C, apparent KD, TWEAK amine-coupled on C1 chip, antibody as analyte

Binder	Kd
B1	< 0.1 nM
B2	< 0.1 nM
B3	< 0.1 nM
B4	< 0.1 nM

Biological target: T2, human VEGFA-121-His
Assay: SPR Biacore T200, VEGFA-121-His captured via anti-His, antibody as analyte, 1:1 Langmuir
Experimental: (§1) Binding of indicated antibodies to human VEGFA-121 was investigated by surface plasmon resonance using a BIACORE® T200 instrument (GE Healthcare). Around 10000 (RU) of anti His antibody (1 μg/ml anti His antibody; Order Code: 28995056; GE Healthcare Bio-Sciences AB, Sweden) were coupled on a Series S CM5 chip (GE Healthcare BR-1005-30) at pH 5.0 by using an amine coupling kit supplied by the GE Healthcare. HBS-N (10 mM HEPES, 150 mM NaCl pH 7.4, GE Healthcare) was used as running buffer during the immobilization procedure. For the following kinetic characterization, sample and running buffer was PBS-T (10 mM phosphate buffered saline including 0.05% Tween20) at pH 7.4. The flow cell was set to 25° C.—and the sample block set to 12° C.—and primed with running buffer twice prior to kinetic characterization.
(§2) VEFGA-121-His was captured by injecting a 0.5 μg/ml solution for 30 sec at a flow of 5 μl/min. The association was measured by injection of the indicated antibodies in various concentrations in solution for 180 sec at a flow of 30 μl/min starting with 1000 nM in 1:3 serial dilutions. The dissociation phase was monitored for up to 600 sec and triggered by switching from the sample solution to running buffer. The surface was regenerated by 60 sec washing with a Glycine pH 1.5 solution at a flow rate of 30 μl/min. Bulk refractive index differences were corrected by subtracting the response obtained from a anti His antibody surface. Blank injections are also subtracted (=double referencing). For calculation of KD and other kinetic parameters the Langmuir 1:1 model was used.

Binder	Kd
B5	13 nM
B6	12 nM

Biological target: T2, human VEGFA-121-His
Assay: as above
Remark: another data set of the same source
Experimental: as §1, §2

Binder	Kd
B7	17 nM
B8	22 nM

Biological target: T3, human Ang-2-RBD-Fc
Assay: SPR Biacore T200, apparent KD, antibody captured via anti-human F(ab')2, Ang2-RBD-Fc as analyte
Experimental: Binding of indicated antibodies to human Ang-2-RBD-Fc was investigated by surface plasmon resonance using a BIACORE® T200 instrument (GE Healthcare). Around 8000 (RU) of goat anti human F(ab′)₂ (10 μg/ml anti human F(ab)′₂; Order Code: 28958325; GE Healthcare Bio-Sciences AB, Sweden) were coupled on a Series S CM5 chip (GE Healthcare BR-1005-30) at pH 5.0 by using an amine coupling kit supplied by the GE Healthcare. HBS-N (10 mM HEPES, 150 mM NaCl pH 7.4, GE Healthcare) was used as running buffer during the immobilization procedure. For the following kinetic characterization, sample and running buffer was PBS-T (10 mM phosphate buffered saline including 0.05% Tween20) at pH 7.4. The flow cell was set to 25° C.—and the sample block set to 12° C.—and primed with running buffer twice prior to kinetic characterization.
The bispecific antibody was captured by injecting a 5 nM solution for 25 sec at a flow of 5 μl/min. The association was measured by injection of human Ang2-RBD-Fc in various concentrations in solution for 120 sec at a flow of 30 μl/min starting with 100 nM in 1:3 serial dilutions. The dissociation phase was monitored for up to 180 sec and triggered by switching from the sample solution to running buffer. The surface was regenerated by 60 sec washing with a Glycine pH 2.1 solution at a flow rate of 30 μl/min. Bulk refractive index differences were corrected by subtracting the response obtained from a goat anti human F(ab′)₂ surface. Blank injections are also subtracted (=double referencing). For calculation of apparent KD the Langmuir 1:1 model was used.

Binder	Kd
B7	0.5 nM
B8	0.5 nM
B5	3 nM
B6	3 nM

Biological target: T4, human IL17
Assay: SPR Biacore T200 25 C, antibody captured via anti-human F(ab')2, human IL17 as analyte, 1:1 Langmuir
Experimental: Around 6000 resonance units (RU) of the capturing system (15 μg/ml goat anti human F(ab′)2; Order Code: 28958325; GE Healthcare Bio-Sciences AB, Schweden) were coupled on a CM5 chip at pH 5.0 by using an amine coupling kit supplied by the GE Healthcare. The sample and system buffer was PBS-T (10 mM phosphate buffered saline including 0.05% Tween 20) pH 7.4. The bispecific antibody was captured by injecting a 50 nM solution for 90 sec at a flow of 10 μl/min. Association was measured by injection human IL17 in various concentrations in solution for 3 min at a flow of 30 μl/min starting with 50 nM in 1:1 serial dilutions. The dissociation phase was monitored for up to 10 min and triggered by switching from the sample solution to running buffer. The surface was regenerated twice by 60 sec wash with a 10 mM glycine pH 2.1 solution at a flow rate of 30 μl/min. Bulk refractive index differences were corrected by subtracting the response obtained from a goat anti human F(ab′)2 surface. Blank injections are also subtracted (=double referencing). For calculation of apparent KD and other kinetic parameters, the Langmuir 1:1 model was used.

Binder	Kd
B1	0.1 nM
B2	0.1 nM
B3	0.1 nM
B4	0.1 nM
